The target in this experiment is DNA-dependent protein kinase catalytic subunit (human (endogenous in HCT-116), UniProt P78527 1-4128). Briefly: cell-based or functional assay.

The results in this text go back to paper PMC2613223 (International journal of cancer. Journal international du …, 2008).

Chain of DNA-dependent protein kinase catalytic subunit (P78527 whole entry): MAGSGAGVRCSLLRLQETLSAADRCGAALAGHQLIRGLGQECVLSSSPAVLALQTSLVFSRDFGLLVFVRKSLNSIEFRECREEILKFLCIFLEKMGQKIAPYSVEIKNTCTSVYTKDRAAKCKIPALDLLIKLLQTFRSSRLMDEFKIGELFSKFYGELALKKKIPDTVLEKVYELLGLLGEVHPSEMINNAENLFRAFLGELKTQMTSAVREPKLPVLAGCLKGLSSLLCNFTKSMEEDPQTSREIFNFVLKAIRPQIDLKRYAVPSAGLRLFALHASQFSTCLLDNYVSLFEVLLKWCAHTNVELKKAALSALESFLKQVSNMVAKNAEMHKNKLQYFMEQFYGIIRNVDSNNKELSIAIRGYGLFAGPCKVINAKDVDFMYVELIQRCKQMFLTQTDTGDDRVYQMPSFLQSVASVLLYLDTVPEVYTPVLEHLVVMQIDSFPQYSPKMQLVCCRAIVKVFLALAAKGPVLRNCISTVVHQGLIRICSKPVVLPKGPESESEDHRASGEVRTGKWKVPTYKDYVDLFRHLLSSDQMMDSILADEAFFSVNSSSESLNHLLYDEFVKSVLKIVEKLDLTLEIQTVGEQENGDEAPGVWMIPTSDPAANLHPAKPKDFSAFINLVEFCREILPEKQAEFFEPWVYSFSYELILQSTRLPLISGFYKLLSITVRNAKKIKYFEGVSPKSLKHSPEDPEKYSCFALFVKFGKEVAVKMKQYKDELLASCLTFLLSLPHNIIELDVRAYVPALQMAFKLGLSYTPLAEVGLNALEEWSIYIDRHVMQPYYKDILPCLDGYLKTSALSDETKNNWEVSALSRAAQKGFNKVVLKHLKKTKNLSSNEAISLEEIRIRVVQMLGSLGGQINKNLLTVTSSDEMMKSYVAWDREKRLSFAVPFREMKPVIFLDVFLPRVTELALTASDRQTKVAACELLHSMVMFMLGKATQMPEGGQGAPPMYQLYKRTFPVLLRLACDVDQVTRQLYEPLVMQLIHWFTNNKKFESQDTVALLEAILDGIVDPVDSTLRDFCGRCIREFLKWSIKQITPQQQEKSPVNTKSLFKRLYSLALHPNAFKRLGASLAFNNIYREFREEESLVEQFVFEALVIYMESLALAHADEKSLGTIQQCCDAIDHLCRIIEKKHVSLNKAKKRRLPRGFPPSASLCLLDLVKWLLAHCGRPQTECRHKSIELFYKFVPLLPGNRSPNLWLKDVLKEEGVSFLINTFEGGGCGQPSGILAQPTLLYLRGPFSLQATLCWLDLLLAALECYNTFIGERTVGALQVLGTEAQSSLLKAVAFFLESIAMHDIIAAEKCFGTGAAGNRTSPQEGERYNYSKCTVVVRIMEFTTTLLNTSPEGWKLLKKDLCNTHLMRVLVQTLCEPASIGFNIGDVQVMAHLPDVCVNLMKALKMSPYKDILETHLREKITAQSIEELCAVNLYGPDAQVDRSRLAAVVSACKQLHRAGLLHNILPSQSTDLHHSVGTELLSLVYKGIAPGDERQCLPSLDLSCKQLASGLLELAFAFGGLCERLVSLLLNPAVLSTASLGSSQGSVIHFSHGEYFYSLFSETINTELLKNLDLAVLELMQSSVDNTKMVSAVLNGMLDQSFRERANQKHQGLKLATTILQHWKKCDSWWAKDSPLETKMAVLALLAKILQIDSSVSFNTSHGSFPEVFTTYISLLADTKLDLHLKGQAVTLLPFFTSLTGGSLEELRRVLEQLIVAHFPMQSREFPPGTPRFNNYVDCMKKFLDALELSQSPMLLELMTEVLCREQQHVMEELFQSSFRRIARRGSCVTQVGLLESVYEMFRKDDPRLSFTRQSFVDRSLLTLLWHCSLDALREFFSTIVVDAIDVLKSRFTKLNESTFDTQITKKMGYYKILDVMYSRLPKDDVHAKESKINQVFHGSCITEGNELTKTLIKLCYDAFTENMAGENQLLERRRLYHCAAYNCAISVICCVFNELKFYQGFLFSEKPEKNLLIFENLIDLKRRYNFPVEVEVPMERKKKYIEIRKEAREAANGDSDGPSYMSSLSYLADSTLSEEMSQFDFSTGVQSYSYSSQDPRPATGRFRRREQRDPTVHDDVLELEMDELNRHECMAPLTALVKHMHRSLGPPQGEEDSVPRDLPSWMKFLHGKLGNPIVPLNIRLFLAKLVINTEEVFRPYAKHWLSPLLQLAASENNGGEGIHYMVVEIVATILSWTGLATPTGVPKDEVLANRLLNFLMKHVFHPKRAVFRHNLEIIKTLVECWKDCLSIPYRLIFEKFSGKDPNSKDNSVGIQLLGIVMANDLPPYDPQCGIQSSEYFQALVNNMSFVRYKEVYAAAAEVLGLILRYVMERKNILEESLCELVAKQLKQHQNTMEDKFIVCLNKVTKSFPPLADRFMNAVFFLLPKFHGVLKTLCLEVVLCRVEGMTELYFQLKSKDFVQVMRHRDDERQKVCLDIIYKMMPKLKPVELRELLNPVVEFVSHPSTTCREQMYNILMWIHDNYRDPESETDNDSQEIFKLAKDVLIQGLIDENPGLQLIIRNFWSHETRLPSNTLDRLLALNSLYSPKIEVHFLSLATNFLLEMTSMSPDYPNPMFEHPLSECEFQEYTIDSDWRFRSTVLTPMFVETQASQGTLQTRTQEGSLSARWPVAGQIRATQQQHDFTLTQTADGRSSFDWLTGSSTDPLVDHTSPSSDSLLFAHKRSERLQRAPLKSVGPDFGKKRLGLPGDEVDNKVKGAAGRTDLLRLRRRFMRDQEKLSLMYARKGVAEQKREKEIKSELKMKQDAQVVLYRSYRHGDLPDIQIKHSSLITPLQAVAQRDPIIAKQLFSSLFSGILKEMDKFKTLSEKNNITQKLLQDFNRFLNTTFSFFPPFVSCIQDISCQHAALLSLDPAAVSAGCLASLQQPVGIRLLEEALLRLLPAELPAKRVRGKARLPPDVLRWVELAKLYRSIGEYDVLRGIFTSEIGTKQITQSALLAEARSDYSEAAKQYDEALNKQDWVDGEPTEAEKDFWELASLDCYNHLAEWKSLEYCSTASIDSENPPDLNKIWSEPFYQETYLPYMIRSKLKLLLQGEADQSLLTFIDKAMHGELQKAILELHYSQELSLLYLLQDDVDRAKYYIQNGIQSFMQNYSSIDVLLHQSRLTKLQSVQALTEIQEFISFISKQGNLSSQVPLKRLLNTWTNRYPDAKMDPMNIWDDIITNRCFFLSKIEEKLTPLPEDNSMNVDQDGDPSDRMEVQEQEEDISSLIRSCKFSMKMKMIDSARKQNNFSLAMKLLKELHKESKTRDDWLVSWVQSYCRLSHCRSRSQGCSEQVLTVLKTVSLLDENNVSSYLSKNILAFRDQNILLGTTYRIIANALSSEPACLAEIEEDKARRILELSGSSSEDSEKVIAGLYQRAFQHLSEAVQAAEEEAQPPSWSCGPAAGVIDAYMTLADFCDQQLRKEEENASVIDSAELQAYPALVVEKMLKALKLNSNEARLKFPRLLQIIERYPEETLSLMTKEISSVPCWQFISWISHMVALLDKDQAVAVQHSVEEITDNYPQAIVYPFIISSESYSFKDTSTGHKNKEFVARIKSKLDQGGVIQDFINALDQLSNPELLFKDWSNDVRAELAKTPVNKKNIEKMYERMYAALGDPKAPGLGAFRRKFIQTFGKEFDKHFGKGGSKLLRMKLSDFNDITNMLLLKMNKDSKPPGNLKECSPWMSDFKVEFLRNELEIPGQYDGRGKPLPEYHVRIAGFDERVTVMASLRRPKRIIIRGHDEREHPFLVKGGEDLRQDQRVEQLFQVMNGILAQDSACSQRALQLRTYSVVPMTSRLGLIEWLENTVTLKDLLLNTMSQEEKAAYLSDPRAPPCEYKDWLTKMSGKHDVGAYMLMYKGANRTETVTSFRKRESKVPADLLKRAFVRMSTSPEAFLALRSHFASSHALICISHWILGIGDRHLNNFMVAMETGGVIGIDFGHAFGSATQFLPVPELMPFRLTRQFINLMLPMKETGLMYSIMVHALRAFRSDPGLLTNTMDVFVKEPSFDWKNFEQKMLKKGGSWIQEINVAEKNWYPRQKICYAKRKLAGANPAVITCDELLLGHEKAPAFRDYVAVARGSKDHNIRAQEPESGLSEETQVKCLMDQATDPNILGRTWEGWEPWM

B1: 15-lipoxygenase-1 (enzyme, human, UniProt P16050 1-662, looked up)
chain: MGLYRIRVSTGASLYAGSNNQVQLWLVGQHGEAALGKRLWPARGKETELKVEVPEYLGPLLFVKLRKRHLLKDDAWFCNWISVQGPGAGDEVRFPCYRWVEGNGVLSLPEGTGRTVGEDPQGLFQKHREEELEERRKLYRWGNWKDGLILNMAGAKLYDLPVDERFLEDKRVDFEVSLAKGLADLAIKDSLNVLTCWKDLDDFNRIFWCGQSKLAERVRDSWKEDALFGYQFLNGANPVVLRRSAHLPARLVFPPGMEELQAQLEKELEGGTLFEADFSLLDGIKANVILCSQQHLAAPLVMLKLQPDGKLLPMVIQLQLPRTGSPPPPLFLPTDPPMAWLLAKCWVRSSDFQLHELQSHLLRGHLMAEVIVVATMRCLPSIHPIFKLIIPHLRYTLEINVRARTGLVSDMGIFDQIMSTGGGGHVQLLKQAGAFLTYSSFCPPDDLADRGLLGVKSSFYAQDALRLWEIIYRYVEGIVSLHYKTDVAVKDDPELQTWCREITEIGLQGAQDRGFPVSLQARDQVCHFVTMCIFTCTGQHASVHLGQLDWYSWVPNAPCTMRLPPPTTKDATLETVMATLPNFHQASLQMSITWQLGRRQPVMVAVGQHEEEYFSGPEPKAVLKKFREELAALDKEIEIRNAKLDMPYEYLRPSVVENSVAI
Regarding B1, the “DNA-PK kinase activity in 15-LOX-1 expressing whole cell extract lysates” value turned out to be 1.6 fold.
